Biological target: T1, CD3 antigen of the T-cell receptor-CD3 complex on human T cells (human, UniProt P07766 23-207)
T1 construct: whole, on cells; also called OKT3 antigen
Assay: antigen binding assay on CD3 positive cells, COS cell supernatant (cell line not restated)
Method: The procedure was as follows:
HUT 78 cells (human T cell line, CD3 positive) were maintained in culture. Monolayers of HUT 78 cells were prepared onto 96 well ELISA plates using poly-L-lysine and glutaraldehyde. Samples were added to the monolayers for 1 hour at room temperature. The plates were washed gently using PBS. F(ab')_2 goat anti-human IgG Fc (HRPO conjugated) or F(ab')_2 goat anti-mouse IgG Fc (HRPO conjugated) was added as appropriate for humanised or mouse samples. Substrate was added to reveal the reaction. The negative control for the cell-based assay was chimer B72.3. […] Binding was measured by the following procedure: HPB-ALL cells were harvested from tissue culture. Cells were incubated at 4° C. for 1 hour with various dilutions of test antibody, positive control antibody, or negative control antibody. The cells were washed once and incubated at 4° C. for 1 hour with an FITC-labelled goat anti-human IgG (Fc– specific, mouse absorbed). The cells were washed twice and analysed by cytofluorography. […] Cells incubated with mock-transfected COS cell supernatant, followed by the FITC-labelled goat anti-human IgG, provided the negative control. […] The samples were incubated for 1 hour at 4° C., washed twice and analysed by cytofluorography.

B1: fully CDR-grafted antibody kgL221A with gH341 (kgL221A/kgH341) (antibody, V domains shown)
VH: QVQLVESGGGVVQPGRSLRLSCSSSGYTFTRYTMHWVRQAPGKGLEWVAYINPSRGYTNYNQKFKDRFTISRDNSKNTLFLQMDSLRPEDTGVYFCARYYDDHYCLDYWGQGTTLTVSS
VL: QIVMTQSPSSLSASVGDRVTITCSASSSVSYMNWYQQTPGKAPKRWIYDTSKLASGVPSRFSGSGSGTDYTFTISSLQPEDIATYYCQQWSSNPFTFGQGTKLQIT
notes: Expression was very low; also called kgH221A/gH341; kgH221A/kgH341
Does B1 bind?
Result: no binding

From patent US6750325 (CELLTECH R AND D, dated 2004)
